Laboratory results: publication PMC11931385, “Structural and functional analysis of cancer-associated missense variants in the retinoblastoma protein pocket domain” (The Journal of Biological Chemistry, 2025)
Residue numbers refer to the chain shown, from its start. In names and notes the source's numbering stands. No end group written: not given here. TMR = tetramethyl rhodamine dye

T1: Rb^P E554K (human, UniProt P06400 380-788, E554K)
T1 construct: also called variant 28
T1 sequence (looked up): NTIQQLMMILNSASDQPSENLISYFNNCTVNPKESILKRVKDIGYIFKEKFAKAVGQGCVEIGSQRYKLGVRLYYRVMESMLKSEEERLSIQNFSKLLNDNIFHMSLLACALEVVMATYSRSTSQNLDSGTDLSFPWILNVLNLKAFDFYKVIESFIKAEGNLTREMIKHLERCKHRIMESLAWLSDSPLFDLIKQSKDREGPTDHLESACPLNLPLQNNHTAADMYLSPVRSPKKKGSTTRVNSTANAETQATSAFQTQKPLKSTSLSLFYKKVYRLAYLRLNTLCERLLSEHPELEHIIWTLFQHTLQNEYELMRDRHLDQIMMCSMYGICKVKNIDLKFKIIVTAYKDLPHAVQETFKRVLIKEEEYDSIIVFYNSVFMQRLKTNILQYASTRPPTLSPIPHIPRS

T2: Rb^P R451H (human, UniProt P06400 380-788, R451H)
T2 construct: also called variant 6
T2 sequence (looked up): T1 sequence (looked up) with R72H, K175E

T3: Rb^P R621H (human, UniProt P06400 380-788, R621H)
T3 construct: also called variant 42
T3 sequence (looked up): T1 sequence (looked up) with K175E, R242H

T4: Rb^P H699P (human, UniProt P06400 380-788, H699P)
T4 construct: also called variant 63
T4 sequence (looked up): T1 sequence (looked up) with K175E, H320P

T5: Rb^P K530I (human, UniProt P06400 380-788, K530I)
T5 construct: also called variant 21
T5 sequence (looked up): T1 sequence (looked up) with K151I, K175E

B1: TMR-E2F1^TD, peptide of the E2F1 transactivation domain (peptide)
peptide: {TMR}-GEGIRDLFDCDFGDLTPLD
notes: also called E2F^TD; source: synthetic peptide, bought: GenScript
B2: TMR-E7^LxCxE, LxCxE peptide of the E7 oncoprotein from HPV (peptide)
peptide: DLYCYEQLN
modifications: also: TMR label, position not given here
notes: source: synthetic peptide, bought: GenScript

How the values were obtained:
Test in all cases: fluorescence polarisation; 37 °C, after the 25 °C reading ramped over 7 min to 37 °C and 2 min incubation; unlabeled Rb^P against 1.5 nM TMR-E2F1^TD or 7.5 nM TMR-E7^LxCxE; 25 mM Tris pH 8.0, 200 mM NaCl, 1 mM DTT, 0.1% Tween-20; apparent Kd
Conditions in all cases: both partners purified
Rb^P E554K = target: T1, Rb^P E554K
Rb^P R451H = target: T2, Rb^P R451H
Rb^P R621H = target: T3, Rb^P R621H
Rb^P H699P = target: T4, Rb^P H699P
Rb^P K530I = target: T5, Rb^P K530I

Row | Binder | Kd (Rb^P E554K) | Kd (Rb^P R451H) | Kd (Rb^P R621H) | Kd (Rb^P H699P) | Kd (Rb^P K530I)
1 | B1 | 3270 nM | 56 nM | 48 nM | 68 nM | 1680 nM
2 | B2 | 48 nM | 22 nM | 18 nM | 14 nM | 20 nM
